Data taken from a protein production outcome set (Wang et al. 2014).

Assay: label from the status in PepcDB records
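Note: failed if final PepcDB status was selected cloned or expressed and not failed if soluble or beyond.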

For “AIASRAASLRAELTSLANAFEEERISSAERLDADLVRQAVEQAKPENLEQWKQVVHDATAKLQQFWEDSEQALIRETYALATSYLRESDDEVHRLQMTKKALEEQLETERRRSTRIEEQLAALQSRLLDSAAPAATTPADDARTQQEVLRSELQGFMQELVRNQRESLRVLQEELQRVREEASVREENLLRQIAHLKTELAVARTDNEVSSRQLRQLETSAGREEVQDELGPGTIWPPHLTPRRGHRRFQRHNRLEDAPAPPEF”, the protein production was “failed”.

In the case of “MKTVVIGAGLGGLLSAARLSKAGHEVEVFERLPITGGRFTNLSYKGFQLSSGAFHMLPNGPGGPLACFLKEVEASVNIVRSEMTTVRVPLKKGNPDYVKGFKDISFNDFPSLLSYKDRMKIALLIVSTRKNRPSGSSLQAWIKSQVSDEWLIKFADSFCGWALSLKSDEVPVEEVFEIIENMYRFGGTGIPEGGCKGIIDALETVISANGGKIHTGQEVSKILIENGKAAGIIADDRIHDADLVISNLGHAATAVLCSEALSKEADAAYFKMVGTLQPSAGIKICLAADEPLVGHTGVLLTPYTRRINGVNEVTQADPELAPPGKHLTMCHQYVAPENVKNLESEIEMGLEDLKEIFPGKRYEVLLIQSYHDEWPVNRAASGTDPGNETPFSGLYVVGDGAKGKGGIEVEGVALGVMSVMEKVLGLEHHHHHH”, the protein production is reported as “not failed”.

For “MGVVFAFGFYLIFIKLTGLKLMDYFPRFKENRLKMIFSILSVILAFLINWLIMKNFSFLIEIIHPIASVWIFIILIYLLLRFLFLKRVPLSNYEKKFMGNMSAIAIFLELLKIIEYVDEHNIASPITVALVFFIPVVVFFNCKYFYEMELSS”, the protein production was “failed”.

For “MVSCSNQQTQTKAITVSDTTLLSAEEFSQKIKKEPNALILDVRTPEEFSEAHIANATNVNWKDNFASGITEVNKNQPVLVYCLSGGRSASASDYLRKNGYTQVYELQGGLLKWQASNFEVVADTVTAAQDSGMTLQQFEALLVTDKYVLIDFYATWCGPCKMMEPALEDIAATMSDKVIVVRIDVDKNEELSKHFEVESLPTVQIYKNKKLVWEDIGYKTKKQLVSQLK”, the protein production was “failed”.

For “MAKKTLILYYSWSGETKKMAEKINSEIKDSELKEVKVSEGTFDADMYKTSDIALDQIQGNKDFPEIQLDNIDYNNYDLILIGSPVWSGYPATPIKTLLDQMKNYRGEVASFFTSAGTNHKAYVSHFNEWADGLNVIGVARDDSEVDKWSK”, the protein production was “not failed”.

In the case of “MDRNEIGLNAGKVWQLLSNNEKWGYGTLKRKSGLKDKELGAALGWLSRENKIEFDQCDEELYVYLCVNVYIG”, the protein production is reported as “failed”.

In the case of “MANETPKRRILVIRIDFLGDMLCTTAFLGALKRRWPDAELHVVANRYNASALDGNPDVHAVHTYVYSRQCERNDRPGRMRAFFDRLRLVRRLRRLRFDLVVVPNGGMHRSSIQLARQLGVKDCRWHDADSEFDDRKPEHVASRPMCHEALSGFRLVPELGRNDLDGLALSVHPDRALLDTWYRLLGARAKPRVGLFVSNKATERRWPADRWCDLGRRLAPFADVIVFRDPAVSAGAGADGDAWRDVNARHVAPSSVAELVAAASLLDAIVSADSAPVHLASALGVPVAALFEDRPEKYRRWHPLGVPHMILRAGATVDAIGVDAVERAVLHLLEKAGQADDATGGALPLPDVTLVVPAVGAIVS”, the protein production is reported as “failed”.

For “MTREMARLLISPSNAWPRLRQDYDHHPFAFLVPLLLLPLLPAACLFIGTTQVGWSLPGNDSVQHLSSGSALLLATMCYLGFVAGVVIMGLFVRWVLFRTPSRPSVPGSLTFTTAIAVPLMLAGIVALVPWRILLLLAAAAACAYSVRLLFTGLPLFMRMQERQTLFYAFCILGVGFLTLLTTAFIFIELWGQSLAGSGEYLR”, the protein production was “failed”.

In the case of “SLFVKESHNTSKGPEATWNLNKVHFVYDSSEKTHFKAPVKVNKYIASSHHLSALVTPAGMSYECQAQQTISLASSDPQKTVTMILSAVHIQPFDIISDFVFSEEHKCPVDEQEQLEETLPLILGLILGLVIVITLVIYHIHHKMTANQVQIPRDRSQYKHMG”, the protein production is reported as “failed”.

For “MSIRLKTALLSGILLAILVSGLGGVLWTVVRPGFQDIERARAADHMTALLAAISADIDSIGTFILSYSSWDETYAFVRTGDPTYVANNLAVEGAKNAQSHFALVLTPKGRTVFSRLWNDDFTATLPPPDAAGGGLPANHPLMAALSHPEGVRGLLQTPRGPLAVAARPILPSNEHGPPRGVLVFGRWLTHALSDHPPLPHLSPLRLWLAPAPGDAPENVRRLLAADGPDLEIDGIGEPTSLVTAGIRLVDLEGAPVAALTTTLAKTVEPQGESIIRLALVIAALGSLGVVAVGLVSNHLMIVAPLRRLESHITTLSRTGDLDTRLVLDRKDEIGLLARAFATMQGRIRHLAHYDPLTGLPNRTLFTMLGEGALARRRADRNGGGRRVGVAILDLDRLNTLTIGLGQGGSERALVAVGRRLAALAGPADVVARGGDGRFLVLLGDLAPAQAGSIVEREAAERLASAFAKPFTPDDLVGAPLSLTASIGLALFPQDGETLETLVTHAEVAVHQAKLLGRNNFQFFDDTLNRQAREILALESALYEALADNTLSLCFQPRIDAVRGHAIELKALARWDHPSRDLIVLEDVLPLIKQDGLLAEIDRWMSNAACRQIRQWRDQGVSFPPIAIALSARPLTAGDPGLAPIAEAIAANGVDPGDLAVEIAQSAIKGQFPETKAPETQAPEDRPAEELPWPDGLAGLGLGLVIDVADAGVVSPALLRRFPLTRLTIGAALVAKLPDCRESRALVRALIALADELDLECLAEGVERGDQADWLLAAGCRLQQGLFHARPQDQTVILRWLGQTPPRGLSSPGPRDRKQDGV”, the protein production was “failed”.

With “MTDESDALCATEKEIMHATHRALVNSGYAELSISRISDELDKAKSTIYHYYDSKDALLLRFLRFTVDRFEATINTSIGDNPKEDLNHIISTLLPCQLPEEKRQLHSVLVTLSPQALERAVFREQFTEIDTRLATIIEKTVRRGVDADVFRDVDPTHAAEHILATIKGTMYSRLTTNREAATAAAKASLFSYIDSHLIS” the protein production was “failed”.

For “MRVAVAGFGGVGRRLARLLLERGGSHGLSLAAAIDSRGHAVFDSRGCVEEALSAPRGGLAGVSCGAPGSGPGVLRGLGYDALVLTTASSPGTGEPGLGYARAALEDGKVVVAADKPPVALLLLEHGGPPPGLFYKATVMAGTPLIDLLRVGLAGRRVLRVVGVLNGTSNYILNLLMEGV”, the protein production was “failed”.

For “MKVRADFAFEKVARDWFVRWSKGRSEKYAGQVMRNFERWVFPAIGNLDIRQVRTADVVGCLRVMEARGIVDTLRKTKNSLKMVFAFAVGSGMMEINPVAQIGSGVFERLEHHHHHH”, the protein production was “not failed”.

For “KRASSKWLVCIGTSPSSAKLIRWTARTAEAFRAPWTALYIENEENDYMTKAEKKCLRETMELAERLGAEIVTLAGHDIAETVAEYARLTGVTNIVVGKSRRRMGLRSLFEEDFEDRLITHLDNVDMHIIP”, the protein production was “failed”.

In the case of “MSLSDQEFDEKYLELSEELKQSEKHKGTLDQGASQFLNAIEFVLRVYRQTEVIYVYAHLKNDQDTGNTDYQALYARASSLFSKVSEAVSWFEPEILQLSDDQIWQYFKEEPKLEVYRHYIQQIVDNRAHVLSAEQESLLAGAGEIFDASSDTFAVLNNADLVFPTIEGENGEIVQLSHGVYGQLLESTDRRVREAAFKGLYSVYEQFRNTFASTLGTHIKGHNFKAKVRNYSSAREASLSNNHIPESVYDTLVDVVNKHLPLLHRYMELRKRLLEVEKLHMYDLYTPVLGEAPITFTYEEAKEKALEALKPMGEEYMAIVEKAFSERWIDVVENKGKRSGAYSSGSYDTNPYILLNWHDTLDQLFTLVHEMGHSVHSYFTRSNQPYVYGDYSIFLAEIASTTNENILTEYLLETEKDPRVRAYVLNHYLDGFKGTVFRQTQFAEFEHFMHTEDEKGVPLTSEYLSDSYGKLNAKYYGPAVEEDPEIKFEWSRIPHFYYNYYVFQYSTGFSAASALAKKILNQEPEALENYLAYLKAGNSDYPVEVMKKAGVDMTQAAYIEDAMSMFEQRLNELEELIDREGHHHHHH”, the protein production is reported as “not failed”.

For “MSLEWQDLAQLPVSIFKDYVTDAQDAEKPFIWTEVFLREINRSNQEIILHIWPMTKTVILGMLDRELPHLELAKKEIISRGYEPVVRNFGGLAVVADEGILNFSLVIPDVFERKLSISDGYLIMVDFIRSIFSDFYQPIEHFEVETSYCPGKFDLSINGKKFAGLAQRRIKNGIAVSIYLSVCGDQKGRSQMISDFYKIGLGDTGSPIAYPNVDPEIMANLSDLLDCPMTVEDVIDRMLISLKQVGFNDRLLMIRPDLVAEFDRFQAKSMANKGMVSRDEEGHHHHHH”, the protein production was “not failed”.

In the case of “DPEEIMQVAVEKLGQGLGICRCVIYRCSADDTVATINHEFLGSGVGSIKGYPWPLKDNPLFQEVVVLKEAIAIDNIDRDPRLGEPEPSTGEVKTLVKSCAILSWMLVPIFYRERLLGMMEFHHCGPAPTEWEDDALTLVEGVATQIGVALIQAESYANLQELNEQLAALDRTRSNLVAITGHELRTP”, the protein production is reported as “failed”.
